Experimental data from the supplement of paper PMC10567573.

B1: DVL3 (parent)
chain: SDVVDWLYHNVEGFTDRREARKYA

Variants of: B1
Experiment: protein stability index of a GFP-peptide fusion (GPS, HEK-293T) (PSI 1-6); higher = more stable
Details: c terminus: a fixed tail appended
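Also: lentivirally expressed fusions sorted by FACS into six bins by GFP to DsRed ratio, PSI derived from sequencing read proportions per bin multiplied by bin number.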

Variant | protein stability index
SDVVDWLYHVVEGFTDRREARKYA [N10V] | 2.58
SDVVDWLYHWVEGFTDRREARKYA [N10W] | 2.63
SDVVDWLYHCVEGFTDRREARKYA [N10C] | 2.1
SDVVDWLYHDVEGFTDRREARKYA [N10D] | 4.09
SDVVDWLYHGVEGFTDRREARKYA [N10G] | 3.03
SDVVDWLYHHVEGFTDRREARKYA [N10H] | 2.7
SDVVDWLYHAVEGFTDRREARKYA [N10A] | 2.1
SDVVDWLYHKVEGFTDRREARKYA [N10K] | 2.34
SDVVDWLYHIVEGFTDRREARKYA [N10I] | 2.25
SDVVDWLYHSVEGFTDRREARKYA [N10S] | 3.01
SDVVDWLYHEVEGFTDRREARKYA [N10E] | 3.69
SDVVDWLYHTVEGFTDRREARKYA [N10T] | 3.33
SDVVDWLYHLVEGFTDRREARKYA [N10L] | 2
SDVVDWLYHFVEGFTDRREARKYA [N10F] | 1.75
SDVVDWLYHQVEGFTDRREARKYA [N10Q] | 2.91
SDVVDWLYHMVEGFTDRREARKYA [N10M] | 1.94
SDVVDWLYHYVEGFTDRREARKYA [N10Y] | 2.01
SDVVDWLYHRVEGFTDRREARKYA [N10R] | 2.6
SDVVDNLYHNVEGFTDRREARKYA [W6N] | 4.95
SDVVDPLYHNVEGFTDRREARKYA [W6P] | 4.86
SDVVDSLYHNVEGFTDRREARKYA [W6S] | 4.76
SDVVDVLYHNVEGFTDRREARKYA [W6V] | 4.58
SDVVDRLYHNVEGFTDRREARKYA [W6R] | 4.79
SDVVDTLYHNVEGFTDRREARKYA [W6T] | 4.54

Variant | protein stability index
SDVVDMLYHNVEGFTDRREARKYA [W6M] | 3.82
SDVVDYLYHNVEGFTDRREARKYA [W6Y] | 3.6
SDVVDQLYHNVEGFTDRREARKYA [W6Q] | 4.22
SDVVDWLYHNVEGFDDRREARKYA [T15D] | 3.04
SDVVDWLYHNVEGFQDRREARKYA [T15Q] | 3.21
SDVVDWLYHNVEGFCDRREARKYA [T15C] | 2.67
SDVVDWLYHNVEGFYDRREARKYA [T15Y] | 3.24
SDVVDWLYHNVEGFWDRREARKYA [T15W] | 2.74
SDVVDWLYHNVEGFNDRREARKYA [T15N] | 3.13
SDVVDWLYHNVEGFKDRREARKYA [T15K] | 2.56
SDVVDWLYHNVEGFPDRREARKYA [T15P] | 2.92
SDVVDWLYHNVEGFADRREARKYA [T15A] | 2.32
SDVVDWLYHNVEGFHDRREARKYA [T15H] | 3.23
SDVVDWLYHNVEGFMDRREARKYA [T15M] | 3.02
SDVVDWLYHNVEGFLDRREARKYA [T15L] | 2.91
SDVVDWLYHNVEGFFDRREARKYA [T15F] | 2.15
SDVVDWLYHNVEGFGDRREARKYA [T15G] | 2.7
SDVVDWLYHNVEGFRDRREARKYA [T15R] | 2.91
SDVVDWLYHNVEGFVDRREARKYA [T15V] | 2.85
SDVVDWLYHNVEGFIDRREARKYA [T15I] | 2.83
SDVVDWLYHNVEGFTDEREARKYA [R17E] | 3.82
SDVVDWLYHNVEGFTDCREARKYA [R17C] | 3.43
SDVVDWLYHNVEGFTDAREARKYA [R17A] | 2.81
SDVVDWLYHNVEGFTDFREARKYA [R17F] | 2.16

Variant | protein stability index
SDVVDWLYHNVEGFTDDREARKYA [R17D] | 3.56
SDVVDWLYDNVEGFTDRREARKYA [H9D] | 3.66
SDVVDWLYRNVEGFTDRREARKYA [H9R] | 2.8
SDVVDWLYKNVEGFTDRREARKYA [H9K] | 2.67
SDVVDWLYPNVEGFTDRREARKYA [H9P] | 4
SDVVDWLYYNVEGFTDRREARKYA [H9Y] | 3.21
SDVVDWLYFNVEGFTDRREARKYA [H9F] | 2.14
SDVVDWLYVNVEGFTDRREARKYA [H9V] | 2.16
SDVVDWLYNNVEGFTDRREARKYA [H9N] | 3.83
SDVVDWLYANVEGFTDRREARKYA [H9A] | 2.37
SDVVDWLYCNVEGFTDRREARKYA [H9C] | 2.13
SDVVDWLYWNVEGFTDRREARKYA [H9W] | 2.42
SDVVDWLYINVEGFTDRREARKYA [H9I] | 2.09
SDVVDWLYSNVEGFTDRREARKYA [H9S] | 2.94
SDVVDWLYQNVEGFTDRREARKYA [H9Q] | 3.11
SDVVDWLYTNVEGFTDRREARKYA [H9T] | 2.67
SDVVDWLYMNVEGFTDRREARKYA [H9M] | 2.79
SDVVDWLYGNVEGFTDRREARKYA [H9G] | 3.32
SDVVDWLYLNVEGFTDRREARKYA [H9L] | 2.55
SDVVDWLYHNDEGFTDRREARKYA [V11D] | 3.62
SDVVDWLYHNKEGFTDRREARKYA [V11K] | 3.85
SDVVDWLYHNREGFTDRREARKYA [V11R] | 3.1
SDVVDWLYHNIEGFTDRREARKYA [V11I] | 2.61
SDVVDWLYHNHEGFTDRREARKYA [V11H] | 3.6

Variant | protein stability index
SDVVDWLYHNTEGFTDRREARKYA [V11T] | 2.67
SDVVDWLYHNPEGFTDRREARKYA [V11P] | 4.08
SDVVDWLYHNFEGFTDRREARKYA [V11F] | 2.46
SDVVDWLYHNAEGFTDRREARKYA [V11A] | 2.8
SDVVDWLYHNEEGFTDRREARKYA [V11E] | 3.53
SDVVDWLYHNSEGFTDRREARKYA [V11S] | 2.45
SDVVDWLYHNNEGFTDRREARKYA [V11N] | 3.83
SDVVDWLYHNGEGFTDRREARKYA [V11G] | 4.04
SDVVDWLYHNCEGFTDRREARKYA [V11C] | 3.07
SDVVDWLYHNQEGFTDRREARKYA [V11Q] | 3.36
SDVVDWLYHNYEGFTDRREARKYA [V11Y] | 3.48
SDVVDWLYHNLEGFTDRREARKYA [V11L] | 2.03
SDVVDWLYHNWEGFTDRREARKYA [V11W] | 2.36
SDVVDWLYHNMEGFTDRREARKYA [V11M] | 2.58
SDVVDWLYHNVEGFTHRREARKYA [D16H] | 2.37
SDVVDWLYHNVEGFTCRREARKYA [D16C] | 1.92
SDVVDWLYHNVEGFTWRREARKYA [D16W] | 2.12
SDVVDWLYHNVEGFTRRREARKYA [D16R] | 2.21
SDVVDWLYHNVEGFTPRREARKYA [D16P] | 3.74
SDVVDWLYHNVEGFTQRREARKYA [D16Q] | 3.19
SDVVDWLYHNVEGFTYRREARKYA [D16Y] | 2.06
SDVVDWLYHNVEGFTFRREARKYA [D16F] | 2.94
